The test deals with human EphA2-Fc, biotinylated (human, UniProt P29317 24-537, biotin (EZ-Link Sulfo NHS-LC-LC-Biotin, 1:1 molar ratio)). Put plainly: BLI.
Sequence of human EphA2-Fc, biotinylated (P29317 24-537): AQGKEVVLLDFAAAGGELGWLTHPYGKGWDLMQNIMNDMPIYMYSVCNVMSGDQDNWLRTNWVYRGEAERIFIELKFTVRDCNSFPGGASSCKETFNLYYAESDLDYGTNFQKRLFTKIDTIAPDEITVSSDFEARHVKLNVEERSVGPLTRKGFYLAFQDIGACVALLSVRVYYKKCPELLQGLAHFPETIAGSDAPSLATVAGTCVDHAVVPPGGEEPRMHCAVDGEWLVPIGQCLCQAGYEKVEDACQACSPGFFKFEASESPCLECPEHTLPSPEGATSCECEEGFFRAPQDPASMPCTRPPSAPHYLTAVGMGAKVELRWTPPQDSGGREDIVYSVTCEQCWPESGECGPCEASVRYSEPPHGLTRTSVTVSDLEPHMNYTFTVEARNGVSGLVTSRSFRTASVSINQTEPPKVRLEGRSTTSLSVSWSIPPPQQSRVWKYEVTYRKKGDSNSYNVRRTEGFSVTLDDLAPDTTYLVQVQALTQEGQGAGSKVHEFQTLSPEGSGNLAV

B1: human ephrin-A1-Fc (recombinant soluble ephrin-A1 fused to human IgG1Fc) (Fc fusion, UniProt P20827 19-182, looked up)
chain: DRHTVFWNSSNPKFRNEDYTIHVQLNDYVDIICPHYEDHSVADAAMEQYILYLVEHEEYQLCQPQSKDQVRWQCNRPSAKHGPEKLSEKFQRFTPFTLGKEFKEGHSYYYISKPIHQHEDRCLRLKVTVSGKITHSPQAHDNPQEKRLAADDPEVRVLHSIGHS
As for B1, the binding result is given as “binds”.

For the origin of these results see PMC11753358 (Oncogene, 2024).
